The target in test [1] is RSV F peptide 51-66 presented to CD4+ T cells of BALB/c mice (RSV, A2 strain).
The target of test [2] is RSV F peptides F85-93 and F249-258 presented to CD8+ T cells of BALB/c mice (RSV, A2 strain).
Test [3] shares this target. The source holds these as a separate data set.
In test [4] the target is RSV F peptide 51-66 presented to CD4+ T cells of BALB/c mice (RSV, A2 strain). This is another data set of the same source.

Where two headings read alike, the source gives them in different places.

With “Splenic T cells of unvaccinated BALB/c mice, day 49 (Example 7C, 10-1018) (cells without a defined receptor)”, the CD4+ CD8- splenic T cells: % cytokine-positive (TNFa+), intracellular cytokine staining in test [1] was determined as 0.01%. The substance further gave a CD8+ CD4- splenic T cells: % cytokine-positive (IFNg+), intracellular cytokine staining in test [2] of 0.01%.
In test [3], “Splenic T cells of BALB/c mice vaccinated with VRPs expressing RSV-F (1E6 IU), day 49 (Example 7B, 10-1001) (cells without a defined receptor)” yielded a CD8+ CD4- splenic T cells: % cytokine-positive (IFNg+), intracellular cytokine staining of 3.48%. The same substance showed a CD4+ CD8- splenic T cells: % cytokine-positive (TNFa+), intracellular cytokine staining in test [4] of 0.1%.
The like results for “Splenic T cells of unvaccinated BALB/c mice, day 49 (Example 7B, 10-1001) (cells without a defined receptor)” were, in that order, 0.01% and 0%.
“Splenic T cells of BALB/c mice vaccinated with VRPs expressing RSV-F (1E6 IU), day 49 (Example 7C, 10-1018) (cells without a defined receptor)” gave a CD4+ CD8- splenic T cells: % cytokine-positive (TNFa+), intracellular cytokine staining in test [1] of 0.07%. The substance further yielded a CD8+ CD4- splenic T cells: % cytokine-positive (IFNg+), intracellular cytokine staining in test [2] of 2.45%.
The substance “Splenic T cells of BALB/c mice vaccinated with naked A317 RNA (1 ug), day 49 (Example 7B, 10-1001) (cells without a defined receptor)” had a CD8+ CD4- splenic T cells: % cytokine-positive (IFNg+), intracellular cytokine staining in test [3] of 0.74%. Also, the CD4+ CD8- splenic T cells: % cytokine-positive (TNFa+), intracellular cytokine staining in test [4] came to 0.03%.
With “Splenic T cells of BALB/c mice vaccinated with A317 RNA formulated with CNE17, day 49 (Example 7B, 10-1001) (cells without a defined receptor)”, in test [3], the CD8+ CD4- splenic T cells: % cytokine-positive (IFNg+), intracellular cytokine staining, 1 ug was 1.25%. In test [4], this substance showed a CD4+ CD8- splenic T cells: % cytokine-positive (TNFa+), intracellular cytokine staining, 1 ug of 0.05%.
For the substance “Splenic T cells of BALB/c mice vaccinated with A317 RNA in liposomes RV01(01), day 49 (Example 7C, 10-1018) (cells without a defined receptor)”, in test [1], the CD4+ CD8- splenic T cells: % cytokine-positive (TNFa+), intracellular cytokine staining, 1 ug worked out at 0.09%. Moreover, in test [2], the CD8+ CD4- splenic T cells: % cytokine-positive (IFNg+), intracellular cytokine staining, 10 ug was 3.32%.
In test [3], “Splenic T cells of BALB/c mice vaccinated with A317 RNA in liposomes RV01(01), day 49 (Example 7B, 10-1001) (cells without a defined receptor)” yielded a CD8+ CD4- splenic T cells: % cytokine-positive (IFNg+), intracellular cytokine staining, 1 ug of 3.69%. Also, in test [4], the CD4+ CD8- splenic T cells: % cytokine-positive (TNFa+), intracellular cytokine staining, 1 ug came out at 0.09%.
For “Splenic T cells of BALB/c mice vaccinated with A317 RNA (10 ug) with electroporation, day 49 (Example 7B, 10-1001) (cells without a defined receptor)”, in test [3], the CD8+ CD4- splenic T cells: % cytokine-positive (IFNg+), intracellular cytokine staining is 0.85%. In addition, in test [4], the CD4+ CD8- splenic T cells: % cytokine-positive (TNFa+), intracellular cytokine staining turned out to be 0.05%.
The substance “Splenic T cells of BALB/c mice vaccinated with naked A317 RNA, day 49 (Example 7C, 10-1018) (cells without a defined receptor)” showed a CD4+ CD8- splenic T cells: % cytokine-positive (TNFa+), intracellular cytokine staining, 1 ug in test [1] of 0.03%. Further, in test [2], the CD8+ CD4- splenic T cells: % cytokine-positive (IFNg+), intracellular cytokine staining, 1 ug was determined as 1.68%.

Source of the values: patent publication US20230348575A1.
